Read-outs that look alike come from different tables or passages of the source.
Assays:
MRSA = format: cell-based, Staphylococcus aureus; conditions: 12.5 μg/ml norfloxacin
Protocol: To test the effects of peptides, overnight cultures of wild-type MRSA and MRSA^ΔnorA in TSB media were diluted 1:1,000 in TSB with varying concentrations of peptides, in the presence or the absence of norfloxacin (12.5 μg/ml). All the peptide concentrations contained equal amount of the DMSO vehicle. OD600nm was measured as a function of time in a BioScreen C device at 37° C. with shaking between measurements every 15 min. Three independent experiments were acquired; reported errors reflect the standard deviation among the independent experiments.

[1] = molecular target: T1, S. aureus NorA with a carboxy-terminal decahistidine tag, purified (Staphylococcus aureus), Q5HHX4
T1 chain: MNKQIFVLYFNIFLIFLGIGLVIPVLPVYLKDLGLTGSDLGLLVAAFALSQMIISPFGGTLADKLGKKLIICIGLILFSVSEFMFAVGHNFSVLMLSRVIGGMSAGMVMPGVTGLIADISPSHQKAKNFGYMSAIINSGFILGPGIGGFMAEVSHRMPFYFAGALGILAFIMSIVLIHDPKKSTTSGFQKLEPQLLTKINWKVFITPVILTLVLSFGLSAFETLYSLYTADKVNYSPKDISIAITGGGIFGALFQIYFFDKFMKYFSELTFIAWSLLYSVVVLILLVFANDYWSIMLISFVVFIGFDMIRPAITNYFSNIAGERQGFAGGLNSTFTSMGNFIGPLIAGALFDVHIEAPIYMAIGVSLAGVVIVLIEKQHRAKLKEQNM

[2] = molecular target: T1, S. aureus NorA with a carboxy-terminal …
[3] = molecular target: T2, Native NorA of MRSA (USA300 strain JE2) (Staphylococcus aureus), Q5HHX4; assay: cell-based or functional assay
T2 chain: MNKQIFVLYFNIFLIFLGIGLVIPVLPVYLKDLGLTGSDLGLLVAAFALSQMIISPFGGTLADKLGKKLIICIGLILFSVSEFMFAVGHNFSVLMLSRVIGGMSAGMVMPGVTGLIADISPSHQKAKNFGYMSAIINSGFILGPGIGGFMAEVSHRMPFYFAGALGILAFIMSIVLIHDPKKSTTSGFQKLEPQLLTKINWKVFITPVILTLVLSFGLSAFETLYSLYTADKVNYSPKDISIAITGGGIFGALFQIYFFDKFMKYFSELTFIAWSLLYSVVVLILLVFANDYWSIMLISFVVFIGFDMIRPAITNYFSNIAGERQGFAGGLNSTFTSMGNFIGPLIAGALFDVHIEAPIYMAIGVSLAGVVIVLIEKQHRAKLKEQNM

NorA [4] = molecular target: T3, NorA (Staphylococcus aureus, UniProt Q5HHX4); assay: Microscale thermophoresis (MST) binding of fluorescently labelled Fabs to NorA in PMAL-C8 amphipol; parameters: species or system S. aureus; conditions: labelled Fab 40 nM
T3 construct: made in house; host or cells: C43 (DE3) E. coli
T3 sequence (Q5HHX4 whole entry, looked up): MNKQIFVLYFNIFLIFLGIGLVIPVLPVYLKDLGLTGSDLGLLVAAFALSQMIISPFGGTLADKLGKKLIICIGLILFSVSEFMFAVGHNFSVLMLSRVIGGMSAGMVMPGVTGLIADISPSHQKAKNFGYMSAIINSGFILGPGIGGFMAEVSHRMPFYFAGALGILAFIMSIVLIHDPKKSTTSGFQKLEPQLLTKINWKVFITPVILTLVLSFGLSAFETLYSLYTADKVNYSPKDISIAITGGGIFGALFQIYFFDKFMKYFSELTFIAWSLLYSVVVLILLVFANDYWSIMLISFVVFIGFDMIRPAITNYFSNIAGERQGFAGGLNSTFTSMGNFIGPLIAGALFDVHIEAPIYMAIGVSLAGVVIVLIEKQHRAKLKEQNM
Protocol: Amphipol-purified NorA underwent an additional round of SEC to remove free amphipol. Purified Fabs were prepared as described above and labelled with a primary amine-reactive 647 nm fluorophore (Nanotemper) according to the manufacturer's instructions. Efficient labelling was verified spectroscopically by measuring absorbance at 280 and 650 nm. Microscale thermophoresis (MST) experiments were performed on a Monolith NT.115 Pico instrument (Nanotemper Technologies). Labelled Fab at 40 nM final concentration was mixed with NorA in 20 mM Tris pH 7.0, 100 mM NaCl, and 0.025% (w/v) Tween-20. All samples were incubated for 15 min and loaded into premium glass capillaries. The normalized fluorescent signal (Fnorm) was plotted as a function of ligand concentration and fit with a non-linear sigmoidal regression model (GraphPad Prism) using a Hill slope equal to 1.0 to obtain the Kd values. The error in Kd values for Fab25 (1.2±0.7 μM) and Fab36 (140±20 nM) represent the average and standard deviation of two independent runs with three replicates per independent run. The error range in the Kd value for Fab36^W133A (2 to 4 μM) corresponds to the 95% confidence interval of the non-linear fit. […] MST binding experiments with Fab36^W133A and Fab36^R134A were collected with three replicates each.

NorA [5] = molecular target: T3, NorA; assay: Inhibition of NorA by Fabs in E. coli (co-expression growth inhibition assay); format: cell-based, S. aureus; conditions: E. coli co-expressing NorA and Fab; for E. coli growth inhibition in the presence of norfloxacin: 1.2 μg/ml norfloxacin, arabinose-induced Fab, OD600nm; for E. coli growth inhibition in the absence of norfloxacin: no norfloxacin
Excerpt: NorA was encoded in a pTrcHis2C plasmid (ampicillin resistance) with a C-terminal myc-tag (Yu et al., “NorA Functions as a Multidrug Efflux Protein in Both Cytoplasmic Membrane Vesicles and Reconstituted Proteoliposomes,” J Bacteriol 184:1370-1377 (2002), which is hereby incorporated by reference in its entirety), while Fabs were cloned in a pBAD33 plasmid (gentamicin resistance) (Jimenez et al., “Genetics and Proteomics of Aeromonas salmonicida Lipopolysaccharide Core Biosynthesis,” J Bacteriol 191:2228-2236 (2009), which is hereby incorporated by reference in its entirety) with a C-terminal Avi-tag on the heavy chain of the Fab. Competent Top10 E. coli were co-transformed with vectors containing NorA and Fabs (Fab25, Fab36, or Fabcontrol) and grown on LB agar plates infused with carbenicillin and gentamicin. For time dependent growth curves, a single colony from the transformation was inoculated into TBG media in the presence of carbenicillin and gentamicin. The culture was grown to saturation for ˜20 hr at 30° C. Cultures were diluted by 300-fold into fresh TBG media containing carbenicillin and gentamicin, norfloxacin (0 or 1.2 μg/ml), and arabinose (0%, 0.0001%, 0.0005%, 0.0025%, 0.01%, 0.05%, 0.1%, 0.2%, 0.4%, or 0.8%). OD600nm was measured as a function of time in a BioScreen Pro C device at 30° C. with shaking between measurements every 15 min. Four independent experiments were acquired with two technical replicates per experiment; reported errors reflect the standard deviation among the experiments. Immunoblot (IB) analyses were performed on E. coli lysates co-expressing NorA and Fabs following 24 hr of growth in TBG media in the absence of norfloxacin. Primary antibodies at 1:1,000 dilutions detected the C-terminal myc tag on NorA (Genscript) and the C-terminal Avi tag on the heavy chain of the Fab (Genscript). IB analyses were repeated two independent times.
The insertion of Fab CDRH3 loops into the substrate binding pocket of NorA, as observed in the cryo-EM structures, afforded the expectation that Fab binding would inhibit antibiotic efflux (FIGS. 1A-1D, 4G). […] Since NorA is located within the inner membrane and confers norfloxacin resistance to E. coli (FIG. 6D), growth inhibition was assessed by co-expressing Fabs in the periplasm to allow access to the extracellular face of NorA. Growth curves (OD600 nm vs. time) were quantified with or without norfloxacin and with variable concentrations of arabinose for inducing Fab expression.

NorA [6] = molecular target: T3, NorA; assay: NorA pull-down from E. coli co-expressing NorA and Fabs, immunoblot; format: binding, S. aureus; conditions: co-expression with 0.2% arabinose
[7] = molecular target: T4, S. aureus NorA with a carboxy-terminal decahistidine tag, purified (Staphylococcus aureus, UniProt Q5HHX4 1-388); assay: MST
T4 construct: not shown: carboxy-terminal decahistidine tag
T4 sequence: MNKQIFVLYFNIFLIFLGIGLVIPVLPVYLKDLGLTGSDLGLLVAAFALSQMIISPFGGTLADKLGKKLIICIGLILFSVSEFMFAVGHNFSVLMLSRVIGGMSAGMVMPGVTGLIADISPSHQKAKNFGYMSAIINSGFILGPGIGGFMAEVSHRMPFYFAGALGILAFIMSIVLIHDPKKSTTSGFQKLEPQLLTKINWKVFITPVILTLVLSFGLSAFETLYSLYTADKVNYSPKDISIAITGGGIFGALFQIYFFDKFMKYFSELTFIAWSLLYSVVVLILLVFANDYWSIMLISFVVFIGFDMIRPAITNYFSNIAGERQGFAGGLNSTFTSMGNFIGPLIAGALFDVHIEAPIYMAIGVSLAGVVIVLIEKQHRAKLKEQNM

[8] = molecular target: T4, S. aureus NorA with a carboxy-terminal …
[9] = molecular target: T4, S. aureus NorA with a carboxy-terminal …; remark: listed apart in the source
[10] = molecular target: T4, S. aureus NorA with a carboxy-terminal …; assay: MST; range is the 95% confidence interval of the non-linear fit

NH2-YYYYAWEVGGYWR-CONH2 (H-YYYYAWEVGGYWR-NH2) [NPI-2, control peptide substituting a glutamate for the arginine residue in the tryptophan-arginine motif, reference compound]
growth arrest of MRSA in the presence of norfloxacin (MRSA): displayed no growth arrest of MRSA

B1: NPI-1 (NorA peptide inhibitor), NH2-…-CONH2 (peptide)
peptide: H-YYYYAWRVGGYWR-NH2
IC50 (read off the curve) [1]: 7000 nM | EC50 [2]: 6290 nM | IC50 of dose-dependent growth inhibition of MRSA in the presence of norfloxacin (12.5 µg/ml), 10 hr timepoint [3]: 720 nM

B2: Fab25: synthetic antigen-binding fragment binding NorA; CDRH3 SEQ ID NO: 6; VH SEQ ID NO: 30, VL SEQ ID NO: 31 (antibody, V domains shown)
VH: EVQLVESGGGLVQPGGSLRLSCAASGFTFSSSSIHWVRQAPGKGLEWVASISSSSGSTSYADSVKGRFTISADTSKNTAYLQMNSLRAEDTAVYYCARWETGYYPYWRMYGFYWALDYWGQGTLVTVSS
VL: DIQMTQSPSSLSASVGDRVTITCRASQSVSSAVAWYQQKPGKAPKLLIYSASSLYSGVPSRFSGSRSGTDFTLTISSLQPEDFATYYCQQSSSSLITFGQGTKVEIKRTV
modifications: NorA Antibody N3-25, Heavy Chain Variable Region; NorA Antibody N3-25, Light Chain Variable Region
Kd (NorA [4]): 1200 ± 700 nM | E. coli growth inhibition in the presence of norfloxacin (NorA [5]): showed inhibition of NorA, albeit to a lesser extent than for Fab36 | E. coli growth inhibition in the absence of norfloxacin (NorA [5]): no growth inhibition | Fab in elution fraction of purified NorA (NorA [6]): contained the Fabs as detected through immunoblotting

B3: Fab36 (Fab, V domains shown)
VH: EVQLVESGGGLVQPGGSLRLSCAASGFTFSSSSIHWVRQAPGKGLEWVASISSSSGSTSYADSVKGRFTISADTSKNTAYLQMNSLRAEDTAVYYCARYSRYYYYAWRVGGYWGGLDYWGQGTLVTVSS
VL: DIQMTQSPSSLSASVGDRVTITCRASQSVSSAVAWYQQKPGKAPKLLIYSASSLYSGVPSRFSGSRSGTDFTLTISSLQPEDFATYYCQQSSSSLITFGQGTKVEIKR
notes: also called N3-36
fold tighter binding affinity against Fab25 [7]: ~9 fold | Kd [8]: 140 nM

B4: Fab36: synthetic antigen-binding fragment binding NorA; CDRH3 SEQ ID NO: 7; VH SEQ ID NO: 32, VL SEQ ID NO: 33 (antibody, V domains shown)
VH: EVQLVESGGGLVQPGGSLRLSCAASGFTFSSSSIHWVRQAPGKGLEWVASISSSSGSTSYADSVKGRFTISADTSKNTAYLQMNSLRAEDTAVYYCARYSRYYYYAWRVGGYWGGLDYWGQGTLVTVSS
VL: DIQMTQSPSSLSASVGDRVTITCRASQSVSSAVAWYQQKPGKAPKLLIYSASSLYSGVPSRFSGSRSGTDFTLTISSLQPEDFATYYCQQSSSSLITFGQGTKVEIKRTV
modifications: NorA Antibody N3-36, Heavy Chain Variable Region; NorA Antibody N3-36, Light Chain Variable Region
E. coli growth inhibition in the presence of norfloxacin (NorA [5]): strongly attenuated E. coli growth in an arabinose-dependent manner | E. coli growth inhibition in the absence of norfloxacin (NorA [5]): no growth inhibition | Fab in elution fraction of purified NorA (NorA [6]): contained the Fabs as detected through immunoblotting

B5: Fab36^R134A (antibody, V domains shown)
VH: EVQLVESGGGLVQPGGSLRLSCAASGFTFSSSSIHWVRQAPGKGLEWVASISSSSGSTSYADSVKGRFTISADTSKNTAYLQMNSLRAEDTAVYYCARYSRYYYYAWAVGGYWGGLDYWGQGTLVTVSS
VL: DIQMTQSPSSLSASVGDRVTITCRASQSVSSAVAWYQQKPGKAPKLLIYSASSLYSGVPSRFSGSRSGTDFTLTISSLQPEDFATYYCQQSSSSLITFGQGTKVEIKRTV
Kd (NorA [4]): > 14000 nM

B6: Fab36^R134A (Fab, V domains shown)
VH: EVQLVESGGGLVQPGGSLRLSCAASGFTFSSSSIHWVRQAPGKGLEWVASISSSSGSTSYADSVKGRFTISADTSKNTAYLQMNSLRAEDTAVYYCARYSRYYYYAWAVGGYWGGLDYWGQGTLVTVSS
VL: DIQMTQSPSSLSASVGDRVTITCRASQSVSSAVAWYQQKPGKAPKLLIYSASSLYSGVPSRFSGSRSGTDFTLTISSLQPEDFATYYCQQSSSSLITFGQGTKVEIKR
fold reduced binding affinity against Fab36 [7]: > 100 fold

B7: Fab36^W133A (Fab, V domains shown)
VH: EVQLVESGGGLVQPGGSLRLSCAASGFTFSSSSIHWVRQAPGKGLEWVASISSSSGSTSYADSVKGRFTISADTSKNTAYLQMNSLRAEDTAVYYCARYSRYYYYAARVGGYWGGLDYWGQGTLVTVSS
VL: DIQMTQSPSSLSASVGDRVTITCRASQSVSSAVAWYQQKPGKAPKLLIYSASSLYSGVPSRFSGSRSGTDFTLTISSLQPEDFATYYCQQSSSSLITFGQGTKVEIKR
fold reduced binding affinity against Fab36 [7]: ~20 fold | Kd [9]: 2800 nM | Kd [10]: 2000 to 4000 nM
